From the PETadex activity labels (doi:10.1021/bi00096a018)

Substrate: Acetylcholine
Conditions: pH 7; 22 °C

Protein	Km [µM]	kcat [s⁻¹]
unnamed (protein) MRPPWYPLHTPSLAFPLLFLLLSLLGGGARAEGREDPQLLVRVRGGQLRGIRLKAPGGPVSAFLGIPFAEPPVGSRRFMPPEPKRPWSGVLDATTFQNVCYQNVDTLYPGFEGTEMWNPNRELSEDCLYLNVWTPYPRPASPTPVLIWIYGGGFYSGAASLDVYDGRFLAQVEGAVLVSMNYRVGTFGFLALPGSREAPGNVGLLDQRLALQWVQENIAAFGGDPMSVTLFGESAGAASVGMHILSLPSRSLFHRAVLQSGTPNGPWATVSAGEARRRATLLARLVGCPPGGAGGNDTELIACLRTRPAQDLVDHEWHVLPQESIFRFSFVPVVDGDFLSDTPEALINTGDFQDLQVLVGVVKDEGSYFLVYGVPGFSKDNESLISRAQFLAGVRIGVPQASDLAAEAVVLHYTDWLHPEDPTHLRDAMSAVVGDHNVVCPVAQLAGRLAAQGARVYAYIFEHRASTLTWPLWMGVPHGYEIEFIFGLPLDPSLNYTTEERIFAQRLMKYWTNFARTGDPNDPRDSKSPQWPPYTTAAQQYVSLNLKPLEVRRGLRAQTCAFWNRFLPKLLSATDTLDEAERQWKAEFHRWSSYMVHWKNQFDHYSKQERCSDL	110	2170
unnamed (protein) MRPPWYPLHTPSLAFPLLFLLLSLLGGGARAEGREDPQLLVRVRGGQLRGIRLKAPGGPVSAFLGIPFAEPPVGSRRFMPPEPKRPWSGVLDATTFQNVCYQNVDTLYPGFEGTEMWNPNRELSEDCLYLNVWTPYPRPASPTPVLIWIYGGGFYSGAASLDVYDGRFLAQVEGAVLVSMNYRVGTFGFLALPGSREAPGNVGLLDQRLALQWVQENIAAFGGDPMSVTLFGESAGAASVGMHILSLPSRSLFHRAVLQSGTPNGPWATVSAGEARRRATLLARLVGCPPGGAGGNDTELIACLRTRPAQDLVDHERHVLPQESIFRFSFVPVVDGDFLSDTPEALINTGDFQDLQVLVGVVKDEGSYFLVYGVPGFSKDNESLISRAQFLAGVRIGVPQASDLAAEAVVLHYTDWLHPEDPTHLRDAMSAVVGDHNVVCPVAQLAGRLAAQGARVYAYIFEHRASTLTWPLWMGVPHGYEIEFIFGLPLDPSLNYTTEERIFAQRLMKYWTNFARTGDPNDPRDSKSPQWPPYTTAAQQYVSLNLKPLEVRRGLRAQTCAFWNRFLPKLLSATDTLDEAERQWKAEFHRWSSYMVHWKNQFDHYSKQERCSDL	670	3170
unnamed (protein) MRPPWYPLHTPSLAFPLLFLLLSLLGGGARAEGREDPQLLVRVRGGQLRGIRLKAPGGPVSAFLGIPFAEPPVGSRRFMPPEPKRPWSGVLDATTFQNVCYQNVDTLYPGFEGTEMWNPNRELSEDCLYLNVWTPYPRPASPTPVLIWIYGGGFQSGAASLDVYDGRFLAQVEGAVLVSMNYRVGTFGFLALPGSREAPGNVGLLDQRLALQWVQENIAAFGGDPMSVTLFGESAGAASVGMHILSLPSRSLFHRAVLQSGTPNGPWATVSAGEARRRATLLARLVGCPPGGAGGNDTELIACLRTRPAQDLVDHEWHVLPQESIFRFSFVPVVDGDFLSDTPEALINTGDFQDLQVLVGVVKDEGSYFLVYGVPGFSKDNESLISRAQFLAGVRIGVPQASDLAAEAVVLHYTDWLHPEDPTHLRDAMSAVVGDHNVVCPVAQLAGRLAAQGARVYAYIFEHRASTLTWPLWMGVPHGYEIEFIFGLPLDPSLNYTTEERIFAQRLMKYWTNFARTGDPNDPRDSKSPQWPPYTTAAQQYVSLNLKPLEVRRGLRAQTCAFWNRFLPKLLSATDTLDEAERQWKAEFHRWSSYMVHWKNQFDHYSKQERCSDL	95	1570
unnamed (protein) MRPPWYPLHTPSLAFPLLFLLLSLLGGGARAEGREDPQLLVRVRGGQLRGIRLKAPGGPVSAFLGIPFAEPPVGSRRFMPPEPKRPWSGVLDATTFQNVCYQYVDTLYPGFEGTEMWNPNRELSEDCLYLNVWTPYPRPASPTPVLIWIYGGGFQSGAASLDVYDGRFLAQVEGAVLVSMNYRVGTFGFLALPGSREAPGNVGLLDQRLALQWVQENIAAFGGDPMSVTLFGESAGAASVGMHILSLPSRSLFHRAVLQSGTPNGPWATVSAGEARRRATLLARLVGCPPGGAGGNDTELIACLRTRPAQDLVDHEWHVLPQESIFRFSFVPVVDGDFLSDTPEALINTGDFQDLQVLVGVVKDEGSYFLVYGVPGFSKDNESLISRAQFLAGVRIGVPQASDLAAEAVVLHYTDWLHPEDPTHLRDAMSAVVGDHNVVCPVAQLAGRLAAQGARVYAYIFEHRASTLTWPLWMGVPHGYEIEFIFGLPLDPSLNYTTEERIFAQRLMKYWTNFARTGDPNDPRDSKSPQWPPYTTAAQQYVSLNLKPLEVRRGLRAQTCAFWNRFLPKLLSATDTLDEAERQWKAEFHRWSSYMVHWKNQFDHYSKQERCSDL	120	1830
